Assay results reported in patent publication US20190202883A1 (Takeda / Millennium, published 2019).
Square brackets hold non-standard residues; d marks the D form. Side chains are listed from the residue outwards. Ends that are not written are not given here. Phe(2-F) = N[C@@H](Cc1ccccc1F)C(=O)O; NMeY = CN[C@@H](Cc1ccc(O)cc1)C(=O)O; αMeF = C[C@](N)(Cc1ccccc1)C(=O)O; Iva = CC[C@](C)(N)C(=O)O; Oda = not defined here; Aib = CC(C)(N)C(=O)O

T1: human GIPR (human, UniProt P48546 22-466)
T1 sequence (looked up): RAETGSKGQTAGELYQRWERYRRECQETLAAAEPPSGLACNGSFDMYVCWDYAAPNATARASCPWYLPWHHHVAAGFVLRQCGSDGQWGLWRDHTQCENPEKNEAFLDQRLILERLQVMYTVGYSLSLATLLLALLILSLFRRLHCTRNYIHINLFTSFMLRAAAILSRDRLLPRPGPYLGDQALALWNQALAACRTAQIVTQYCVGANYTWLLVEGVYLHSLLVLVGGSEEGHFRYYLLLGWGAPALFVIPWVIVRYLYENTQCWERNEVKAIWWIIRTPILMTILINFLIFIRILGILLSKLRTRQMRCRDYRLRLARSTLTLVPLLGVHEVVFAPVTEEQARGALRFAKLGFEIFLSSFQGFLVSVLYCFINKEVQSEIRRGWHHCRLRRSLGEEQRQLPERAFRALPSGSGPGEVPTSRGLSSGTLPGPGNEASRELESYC

T2: human NPY2R (human, UniProt P49146 1-381)
T2 sequence (looked up): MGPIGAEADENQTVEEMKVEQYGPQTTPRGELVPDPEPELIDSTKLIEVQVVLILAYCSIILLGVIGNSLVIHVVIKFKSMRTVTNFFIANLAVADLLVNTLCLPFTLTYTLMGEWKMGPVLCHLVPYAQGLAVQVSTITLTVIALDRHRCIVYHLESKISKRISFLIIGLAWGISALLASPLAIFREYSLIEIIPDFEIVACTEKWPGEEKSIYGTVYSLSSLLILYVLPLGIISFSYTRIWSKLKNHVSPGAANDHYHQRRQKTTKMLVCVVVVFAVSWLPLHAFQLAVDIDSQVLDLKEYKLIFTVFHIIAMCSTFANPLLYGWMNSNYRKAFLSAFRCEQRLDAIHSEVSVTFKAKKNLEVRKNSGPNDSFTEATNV

B1: H-Tyr-Aib-Glu-Gly-Thr-αMePhe-Thr-Ser-Asp-Lys(-Gly-Gly-Gly-Gly-Pal)-Aib-Ile-Aib-Leu-Asp-Lys-Gln-Ala-Gln-Iva-Glu-Phe-Val-Arg-His-Leu-Leu-Asn-Lys-Aib-Thr-Arg-Gln-A … (peptide)
peptide: H-Y[Aib]EGT[αMeF]TSDK([Gly-Gly-Gly-Gly-Pal])[Aib]I[Aib]LDKQAQ[Iva]EFVRHLLNK[Aib]TRQR[Phe(2-F)]-NH2
B2: H-Tyr-Aib-Glu-Gly-Thr-αMePhe-Thr-Ser-Asp-Lys(-Gly-Gly-Gly-Gly-Pal)-Ser-Ile-Aib-Leu-Glu-Lys-Gln-Arg-Gln-Iva-Glu-Phe-Val-Arg-His-Leu-Leu-Asn-Lys-Aib-Thr-Arg-Gln-A … (peptide)
peptide: H-Y[Aib]EGT[αMeF]TSDK([Gly-Gly-Gly-Gly-Pal])SI[Aib]LEKQRQ[Iva]EFVRHLLNK[Aib]TRQRY-NH2
B3: H-Tyr-Aib-Glu-Gly-Thr-αMePhe-Thr-Ser-Asp-Lys(-Gly-Gly-Gly-Gly-Oda)-Ala-Ile-Aib-Leu-Glu-Lys-Gln-Arg-Gln-Iva-Glu-Phe-Val-Arg-His-Leu-Leu-Asn-Lys-Aib-Thr-Arg-Gln-A … (peptide)
peptide: H-Y[Aib]EGT[αMeF]TSDK([Gly-Gly-Gly-Gly-Oda])AI[Aib]LEKQRQ[Iva]EFVRHLLNK[Aib]TRQRY-NH2
modifications: reading uncertain; also: printed as H-Tyr-Aib-Glu-Gly-Thr-αMePhe-Thr-Ser-Asp-Lys(-Gly-Gly-Gly-Gly-Oda)-Ala-Ile-Aib-Leu-Glu-Lys-Gln-Arg-Gln-Iva-Glu-Phe-Val-Arg-His-Leu-Leu-Asn-Lys-Aib-Thr-Arg-Gln-Arg-Tyr-NH2
B4: H-Tyr-Aib-Glu-Gly-Thr-αMePhe-Thr-Ser-Asp-Lys(-Gly-Gly-Gly-Gly-Oda)-Ser-Ile-Aib-Leu-Glu-Lys-Gln-Arg-Gln-Iva-Glu-Phe-Val-Arg-His-Leu-Leu-Asn-Lys-Aib-Thr-Arg-Gln-A … (peptide)
peptide: H-Y[Aib]EGT[αMeF]TSDK([Gly-Gly-Gly-Gly-Oda])SI[Aib]LEKQRQ[Iva]EFVRHLLNK[Aib]TRQRY-NH2
modifications: reading uncertain; also: printed as H-Tyr-Aib-Glu-Gly-Thr-αMePhe-Thr-Ser-Asp-Lys(-Gly-Gly-Gly-Gly-Oda)-Ser-Ile-Aib-Leu-Glu-Lys-Gln-Arg-Gln-Iva-Glu-Phe-Val-Arg-His-Leu-Leu-Asn-Lys-Aib-Thr-Arg-Gln-Arg-Tyr-NH2
B5: H-Tyr-Aib-Glu-Gly-Thr-αMePhe-Thr-Ser-Asp-Lys(-Gly-Gly-Gly-Gly-Oda)-Aib-Ile-Aib-Leu-Asp-Lys-Gln-Arg-Gln-Iva-Glu-Phe-Val-Arg-His-Leu-Leu-Asn-Lys-Aib-Thr-Arg-Gln-A … (peptide)
peptide: H-Y[Aib]EGT[αMeF]TSDK([Gly-Gly-Gly-Gly-Oda])[Aib]I[Aib]LDKQRQ[Iva]EFVRHLLNK[Aib]TRQR[Phe(2-F)]-NH2
modifications: reading uncertain; also: printed as H-Tyr-Aib-Glu-Gly-Thr-αMePhe-Thr-Ser-Asp-Lys(-Gly-Gly-Gly-Gly-Oda)-Aib-Ile-Aib-Leu-Asp-Lys-Gln-Arg-Gln-Iva-Glu-Phe-Val-Arg-His-Leu-Leu-Asn-Lys-Aib-Thr-Arg-Gln-Arg-Phe(2-F)-NH2
B6: H-Tyr-Aib-Glu-Gly-Thr-αMePhe-Thr-Ser-Asp-Lys(-Gly-Gly-Gly-Gly-Pal)-Aib-Ile-Aib-Leu-Asp-Lys-Gln-Arg-Gln-Iva-Glu-Phe-Val-Arg-His-Leu-Leu-Asn-Lys-Aib-Thr-Arg-Gln-A … (peptide)
peptide: H-Y[Aib]EGT[αMeF]TSDK([Gly-Gly-Gly-Gly-Pal])[Aib]I[Aib]LDKQRQ[Iva]EFVRHLLNK[Aib]TRQRY-NH2
B7: Me-Tyr-Aib-Glu-Gly-Thr-αMePhe-Thr-Ser-Asp-Lys(-Gly-Gly-Gly-Gly-Oda)-Aib-Ile-Aib-Leu-Asp-Lys-Gln-Arg-Gln-Iva-Glu-Phe-Val-Arg-His-Leu-Leu-Asn-Lys-Aib-Thr-Arg-Gln- … (peptide)
peptide: Me-Y[Aib]EGT[αMeF]TSDK([Gly-Gly-Gly-Gly-Oda])[Aib]I[Aib]LDKQRQ[Iva]EFVRHLLNK[Aib]TRQR[Phe(2-F)]-NH2
modifications: reading uncertain; also: printed as Me-Tyr-Aib-Glu-Gly-Thr-αMePhe-Thr-Ser-Asp-Lys(-Gly-Gly-Gly-Gly-Oda)-Aib-Ile-Aib-Leu-Asp-Lys-Gln-Arg-Gln-Iva-Glu-Phe-Val-Arg-His-Leu-Leu-Asn-Lys-Aib-Thr-Arg-Gln-Arg-Phe(2-F)-NH2
B8: Me-Tyr-Aib-Glu-Gly-Thr-αMePhe-Thr-Ser-Asp-Lys(-Gly-Gly-Gly-Gly-Oda)-Ala-Ile-Aib-Leu-Glu-Lys-Gln-Arg-Gln-Iva-Glu-Phe-Val-Arg-His-Leu-Leu-Asn-Lys-Aib-Thr-Arg-Gln- … (peptide)
peptide: [NMeY][Aib]EGT[αMeF]TSDK([Gly-Gly-Gly-Gly-Oda])AI[Aib]LEKQRQ[Iva]EFVRHLLNK[Aib]TRQRY-NH2
modifications: reading uncertain; also: printed as Me-Tyr-Aib-Glu-Gly-Thr-αMePhe-Thr-Ser-Asp-Lys(-Gly-Gly-Gly-Gly-Oda)-Ala-Ile-Aib-Leu-Glu-Lys-Gln-Arg-Gln-Iva-Glu-Phe-Val-Arg-His-Leu-Leu-Asn-Lys-Aib-Thr-Arg-Gln-Arg-Tyr-NH2
B9: Me-Tyr-Aib-Glu-Gly-Thr-αMePhe-Thr-Ser-Asp-Lys(-Gly-Gly-Gly-Gly-Oda)-Ser-Ile-Aib-Leu-Glu-Lys-Gln-Arg-Gln-Iva-Glu-Phe-Val-Arg-His-Leu-Leu-Asn-Lys-Aib-Thr-Arg-Gln- … (peptide)
peptide: Me-Y[Aib]EGT[αMeF]TSDK([Gly-Gly-Gly-Gly-Oda])SI[Aib]LEKQRQ[Iva]EFVRHLLNK[Aib]TRQRY-NH2
modifications: reading uncertain; also: printed as Me-Tyr-Aib-Glu-Gly-Thr-αMePhe-Thr-Ser-Asp-Lys(-Gly-Gly-Gly-Gly-Oda)-Ser-Ile-Aib-Leu-Glu-Lys-Gln-Arg-Gln-Iva-Glu-Phe-Val-Arg-His-Leu-Leu-Asn-Lys-Aib-Thr-Arg-Gln-Arg-Tyr-NH2
B10: Me-Tyr-Aib-Glu-Gly-Thr-αMePhe-Thr-Ser-Asp-Lys(-Gly-Gly-Gly-Gly-Oda)-Aib-Ile-Aib-Leu-Glu-Lys-Gln-Arg-Gln-Iva-Glu-Phe-Val-Arg-His-Leu-Leu-Asn-Lys-Aib-Thr-Arg-Gln- … (peptide)
peptide: Me-Y[Aib]EGT[αMeF]TSDK([Gly-Gly-Gly-Gly-Oda])[Aib]I[Aib]LEKQRQ[Iva]EFVRHLLNK[Aib]TRQRY-NH2
modifications: reading uncertain; also: printed as Me-Tyr-Aib-Glu-Gly-Thr-αMePhe-Thr-Ser-Asp-Lys(-Gly-Gly-Gly-Gly-Oda)-Aib-Ile-Aib-Leu-Glu-Lys-Gln-Arg-Gln-Iva-Glu-Phe-Val-Arg-His-Leu-Leu-Asn-Lys-Aib-Thr-Arg-Gln-Arg-Tyr-NH2
B11: Me-Tyr-Aib-Glu-Gly-Thr-αMePhe-Thr-Ser-Asp-Lys(-Gly-Gly-Gly-Gly-Pal)-Ala-Ile-Aib-Leu-Glu-Lys-Gln-Arg-Gln-Iva-Glu-Phe-Val-Arg-His-Leu-Leu-Asn-Lys-Aib-Thr-Arg-Gln- … (peptide)
peptide: Me-Y[Aib]EGT[αMeF]TSDK([Gly-Gly-Gly-Gly-Pal])AI[Aib]LEKQRQ[Iva]EFVRHLLNK[Aib]TRQRY-NH2
B12: Me-Tyr-Aib-Glu-Gly-Thr-αMePhe-Thr-Ser-Asp-Lys(-Gly-Gly-Gly-Gly-Pal)-Ser-Ile-Aib-Leu-Glu-Lys-Gln-Arg-Gln-Iva-Glu-Phe-Val-Arg-His-Leu-Leu-Asn-Lys-Aib-Thr-Arg-Gln- … (peptide)
peptide: Me-Y[Aib]EGT[αMeF]TSDK([Gly-Gly-Gly-Gly-Pal])SI[Aib]LEKQRQ[Iva]EFVRHLLNK[Aib]TRQRY-NH2
B13: Me-Tyr-Aib-Glu-Gly-Thr-αMePhe-Thr-Ser-Asp-Lys(-Gly-Gly-Gly-Gly-Pal)-Aib-Ile-Aib-Leu-Asp-Lys-Gln-Arg-Gln-Iva-Glu-Phe-Val-Arg-His-Leu-Leu-Asn-Lys-Aib-Thr-Arg-Gln- … (peptide)
peptide: Me-Y[Aib]EGT[αMeF]TSDK([Gly-Gly-Gly-Gly-Pal])[Aib]I[Aib]LDKQRQ[Iva]EFVRHLLNK[Aib]TRQR[Phe(2-F)]-NH2
B14: H-Tyr-Aib-Glu-Gly-Thr-αMePhe-Thr-Ser-Asp-Lys(-Gly-Gly-Gly-Gly-Pal)-Ala-Ile-Aib-Leu-Glu-Lys-Gln-Arg-Gln-Iva-Glu-Phe-Val-Arg-His-Leu-Leu-Asn-Lys-Aib-Thr-Arg-Gln-A … (peptide)
peptide: H-Y[Aib]EGT[αMeF]TSDK([Gly-Gly-Gly-Gly-Pal])AI[Aib]LEKQRQ[Iva]EFVRHLLNK[Aib]TRQRY-NH2

molecular target: T1, human GIPR; assay: cell-based or functional assay

Agonist activity (EC50), Cre-luc reporter assay	Binder
35 pM	B1
41 pM	B2
360 pM	B3
170 pM	B4
410 pM	B5
68 pM	B6
290 pM	B7
400 pM	B8
250 pM	B9
530 pM	B10
40 pM	B11
52 pM	B12
93 pM	B13
42 pM	B14

molecular target: T2, human NPY2R; assay: cell-based or functional assay

Agonist activity (EC50), Cre-luc reporter assay	Binder
31 pM	B1
41 pM	B2
1100 pM	B3
1600 pM	B4
1300 pM	B5
100 pM	B6
1000 pM	B7
1700 pM	B8
2600 pM	B9
1500 pM	B10
26 pM	B11
49 pM	B12
120 pM	B13
23 pM	B14

molecular target: human GLP-1R (human, UniProt P43220 24-463); assay: cell-based or functional assay

Agonist activity (EC50), Cre-luc reporter assay	Binder
14 pM	B1
53 pM	B2
530 pM	B3
240 pM	B4
610 pM	B5
82 pM	B6
1500 pM	B7
2300 pM	B8
1300 pM	B9
1100 pM	B10
36 pM	B11
48 pM	B12
130 pM	B13
45 pM	B14
